From patent US20180346602A1
Changes are numbered by the printed parent chain.

B1: anti-variant (human) Fc-region antibody M1.3.17 (antibody, V domains shown)
VH: EVKLLESGGGLVQPGGSLKLSCAASGIDFRRYWMNWVRQAPGKGLEWIGEIDPDSSTINYTPSLKDKFIISRDNAKNTMYLQMRKVRSEDTALYYCARPYDYGAWFAYWGQGTLVTVSA
VL: QAVVTQESALTTSPGETVTLTCRSTTGAVTTSNYANWVQEKPDHLFTGLIGGTNKRAPGVPARFSGSLIGDKAALTITGAQTEDEAIYFCALWYSDHWVFGGGTKLTVL
B2: anti-variant (human) Fc-region antibody M1.7.24 (antibody, V domains shown)
VH: B1 VH with I27F, R30S, D52T, M79L, R84I, A97V, Y108S
VL: B1 VL with T25S, D96N

How the values were obtained:
[1] = target: anti-VEGF/ANG2 antibody (IgG1 subclass with mutations P329G/L234A/L235A/I253A/H310A/H435A) [IgG part: P01857]; assay: sandwich ELISA in serum; capture M1.3.17, tracer M1.7.24; anti-VEGF/ANG2 antibody 625 ng/mL
[2] = target: anti-VEGF/ANG2 antibody (IgG1 subclass with mutations P329G/L234A/L235A/I253A/H310A/H435A) [IgG part: P01857]; assay: sandwich ELISA in serum; capture M1.3.17, tracer M1.7.24; anti-VEGF/ANG2 antibody 156.25 ng/mL
[3] = target: anti-VEGF/ANG2 antibody (IgG1 subclass with mutations P329G/L234A/L235A/I253A/H310A/H435A) [IgG part: P01857]; assay: bridging ELISA; biotinylated and digoxigenylated anti-VEGF/ANG2 antibody bridged by M1.3.17 at 7.8125 ng/mL
[4] = target: anti-VEGF/ANG2 antibody (IgG1 subclass with mutations P329G/L234A/L235A/I253A/H310A/H435A) [IgG part: P01857]; assay: bridging ELISA; biotinylated and digoxigenylated anti-VEGF/ANG2 antibody bridged by M1.3.17 at 3.90625 ng/mL
[5] = target: anti-VEGF/ANG2 antibody (IgG1 subclass with mutations P329G/L234A/L235A/I253A/H310A/H435A) (human) [IgG part: P01857]; assay: sandwich ELISA in serum; M1.3.17-Bi capture on SA plate; tracer anti-human kappa M1.7.10-Dig; analyte 1.25 ng/mL
[6] = target: anti-VEGF/ANG2 antibody (IgG1 subclass with mutations P329G/L234A/L235A/I253A/H310A/H435A) (human) [IgG part: P01857]; assay: sandwich ELISA in serum; M1.3.17-Bi capture on SA plate; tracer anti-human kappa M1.7.10-Dig; analyte 0.15625 ng/mL
[7] = target: cytokine (IL-2) antibody conjugate with the mutations P329G, L234A, L235A, I253A, H310A, and H435A; assay: sandwich ELISA in serum; capture anti-IL2 antibody, tracer M1.7.24; conjugate 2500 ng/mL
[8] = target: cytokine (IL-2) antibody conjugate with the mutations P329G, L234A, L235A, I253A, H310A, and H435A; assay: sandwich ELISA in serum; capture anti-IL2 antibody, tracer M1.7.24; conjugate 312.5 ng/mL
[9] = target: cytokine (IL-2) antibody conjugate with the mutations P329G, L234A, L235A, I253A, H310A, and H435A; assay: sandwich ELISA in serum; capture anti-IL2 antibody, tracer M1.7.24; conjugate 39.0625 ng/mL
[10] = target: anti-VEGF/ANG2 antibody (IgG1 subclass with mutations P329G/L234A/L235A/I253A/H310A/H435A) [IgG part: P01857]; assay: sandwich ELISA in serum; capture M1.7.10-Bi, tracer M1.7.24-Dig; anti-VEGF/ANG2 antibody 0.078125 ng/mL

| Binder | signal [OD405 nm] [1] | signal [OD405 nm] [2] | signal [OD405 nm] [3] | signal [OD405 nm] [4] | signal [OD405 nm] [5] | signal [OD405 nm] [6] | signal [OD405 nm] [7] | signal [OD405 nm] [8] | signal [OD405 nm] [9] | signal [OD405 nm] [10] |
| --- | --- | --- | --- | --- | --- | --- | --- | --- | --- | --- |
| B1 | 1.13 OD405 nm | 0.418 OD405 nm | 0.047 OD405 nm | 0.045 OD405 nm | 0.573 OD405 nm | 0.107 OD405 nm | – | – | – | – |
| B2 | – | – | – | – | – | – | 2.35 OD405 nm | 0.451 OD405 nm | 0.101 OD405 nm | 0.096 OD405 nm |
